Values quoted from earlier work in publication PMC12083247.

Legend:
[1] = biological target: S100A10 (Homo sapiens) (UniProt P60903)
[2] = biological target: calpain (Homo sapiens) (UniProt P07384)
UniProt P07384, sequence (P07384 2-714): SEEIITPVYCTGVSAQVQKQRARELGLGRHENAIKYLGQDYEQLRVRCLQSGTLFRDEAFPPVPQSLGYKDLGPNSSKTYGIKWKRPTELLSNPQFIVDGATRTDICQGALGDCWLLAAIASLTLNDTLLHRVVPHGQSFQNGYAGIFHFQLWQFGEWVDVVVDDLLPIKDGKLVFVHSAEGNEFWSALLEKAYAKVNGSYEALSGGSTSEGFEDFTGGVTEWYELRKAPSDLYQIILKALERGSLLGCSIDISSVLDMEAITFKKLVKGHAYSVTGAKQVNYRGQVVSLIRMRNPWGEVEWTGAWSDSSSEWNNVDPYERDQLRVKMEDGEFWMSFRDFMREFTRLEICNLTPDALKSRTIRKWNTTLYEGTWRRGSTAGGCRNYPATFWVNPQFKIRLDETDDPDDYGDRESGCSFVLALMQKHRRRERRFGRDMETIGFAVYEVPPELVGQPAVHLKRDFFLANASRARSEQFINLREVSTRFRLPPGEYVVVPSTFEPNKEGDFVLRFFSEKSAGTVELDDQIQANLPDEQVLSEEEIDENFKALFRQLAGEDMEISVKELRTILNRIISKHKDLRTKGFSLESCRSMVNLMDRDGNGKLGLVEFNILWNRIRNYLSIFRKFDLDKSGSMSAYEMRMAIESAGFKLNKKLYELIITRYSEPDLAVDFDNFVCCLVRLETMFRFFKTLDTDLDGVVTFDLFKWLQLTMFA

UniProt P60903, sequence (P60903 whole entry): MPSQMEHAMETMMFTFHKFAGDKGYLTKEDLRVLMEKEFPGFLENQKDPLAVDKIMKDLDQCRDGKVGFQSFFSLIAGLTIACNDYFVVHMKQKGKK

Substance	Kd [1]	Ki [2]
annexin A2 N-terminal 10-12 residues (from UniProt P07355)	13 nM	–
calpastatin domain I (from UniProt P20810)	–	15 nM
